Results from the DeepSol protein solubility set.

Assay: soluble on expression in E. coli; label from the status in PepcDB or PDB records

| Sequence | soluble on expression in E. coli |
| --- | --- |
| MPGAMESPNESEDVSKTFFKLCDGLRLGELVTTEHFRLSDVMSAIELGEPKMDVGVGSKHIKTLKEAISGGLYADDYPFQLAIMDSTLAMVVAWLEGSALGSTVWTNVLLSNVTFVKHPVFHPFASGVNLFIRNAHALINSVGNLEELPEDFNPQMLFSHQRWAPRRVVVQLMREQVTLLGTTGRKWRESAFSKQAYDICCAVASRLEMFIMLLEIIGLLVAPEIEDPNFDHKVHLGDFYVHEKEYEGAEENSDEKSEESTSDPTPSSEAKSETTEKKEQKSNDEATDETDQNDDENVGDDEDEDDMKQFKPNFGFASILAERLCKVTKAYAETVKLGRRAPDNIDGDGDYLWLGAYEPKTCIRMIPACFPRKIKVPSRQEAADWWVKCAERIYHLCIVTPKTSKDLNYLFYFARTFGQNACVFTRSLLQICMFPVDNHLCGDENRSIADAVEYSLSNCFCPQILDRVSPVYKDQTAQSLYVLFLNHMSKLAITVYGSFGCNLSRQRDRLEMAIEDLGQIHSYAGRLEERTDEVLLSGKMVTAKEQNYSYHSVATFVFHNLLAIINHYFELGFRMDLYVPYEFPYIYWFIGSVQAHWMRTTLERSQEIQLNVYQANPLRETKNKKLWEERCKLGEELKRRVAAHQFSVLNQIAISMISDGVVRLTVVLIRKGIIKMPKGGDDAEKLRFERRFEPFDSLGPPVRVDYERFKSDSGIDQMYEDKIETLIDQAQKSFNEAREHLEKIDNSVEQNREMMQLIHVAKSNIIACRVLKLDLTDRNVVWSFSEEIPMFPCLKISKK | not soluble |
| MPGQPFGVYLHVPFCLTRCGYCDFNTYTPAQLGGVSPDRWLLALRAELELAAAKLDAPTVHTVYVGGGTPSLLGGERLATLLDMVRDHFVLAPDAEVSTEANPESTWPEFFATIRAAGYTRVSLGMQSVAPRVLATLDRVHSPGRAAAAATEAIAEGFTHVNLDLIYGTPGESDDDLVRSVDAAVQAGVDHVSAYALVVEHGTALARRVRRGELAAPDDDVLAHRYELVDARLSAAGFAWYEVSNWCRPGGECRHNLGYWDGGQWWGAGPGAHGYIGVTRWWNVKHPNTYAEILAGATLPVAGFEQLGADALHTEDVLLKVRLRQGLPLARLGAAERERAEAVLADGLLDYHGDRLVLTGRGRLLADAVVRTLLG | not soluble |
| MPHTSSDVADFKEVRHIRGDINLKPFIAIWEVTRACGLVCQHCRADAQHEPHPEQLTTEQGKQLLSDLASYERPKPLVVLTGGDPFERQDLEELVDYGTSLGLNVSLSPSVTPRLTPERIHRLYELGGKAMSMSLDGATAETHDAFRGFSGTFDTTVKRAADILQAGFRLQINSTLTKSNIREAPALLKTVMGMGAKMWYVFFLVPTGRGAALNALNPQEREDVLHWLADVSDRIAIKTTEAPQYRRVVIQQRLRKEGQLDKYQGGELYRYLTQKTTELLGAHPVQPRRPRPPMAVNSGSGFVFIDHIGDVYPSGFLPIHCGNVKQASIKTIYSQSPTFQALRDPNHWHGKCSVCEFHDVCGGSRSTAYALTGDVRASDPTCVYMPQPWLDAGHSGVED | not soluble |
| MPIPNNPGAGENAFDPVFVNDDDGYDLDSFMIPAHYKKYLTKVLVPNGVIKNRIEKLAYDIKKVYNNEEFHILCLLKGSRGFFTALLKHLSRIHNYSAVETSKPLFGEHYVRVKSYCNDQSTGTLEIVSEDLSCLKGKHVLIVEDIIDTGKTLVKFCEYLKKFEIKTVAIACLFIKRTPLWNGFKADFVGFSIPDHFVVGYSLDYNEIFRDLDHCCLVNDEGKKKYKATSL | soluble |
| MPIQRREFIAAIGTGALATTAGCAQSGEGSGQTEAETEAESGGGGQPGVAGETLTLTTTTSTYDTGLLDEIHPDFEDMYGVSVDAVAQGTGAALESARNGDSDIVMVHARGLEDDFMRNGYGINRRDLMFNDFVIVGPEDDPAGIQGMGSATEALTTIAESESQFVSRGDNSGTHTKELNLWEAAGTEPGGNWYQETGTGMGEALNIANQQGAYTLSDRGTYISQRSEIDLVILVQGPIEDGPEILANPYGIMAVNPGVHDNANYDLAMAYIGWITSPGTQDAISNYQVNGEQLFFPEAVSEDPNFQQYVPEGWSSDAGE | not soluble |
| MPIVYYDGNCIYCYNYVIWLIQHDLPRNYQFATLKGEVGQQFFKQHPEAANKNSVILQKGDCIYFESQAIIKLITALPNRTKLLGVGLWLVPKPVRNFGYRMFANNRNRMWKTTWHQPNDYEKSFFLDDNAKVKLTDLEHHHHHH | soluble |
| MPIYEYACHACGLEKEHLQKMSDAPIANCPACGSSDYVKKVSAAGFQLKGTGWYVTDFRNKNTRSDSKPKEESGKEAADTDKAAATTTTDSTTATATTASTSTTAPTVSSVD | not soluble |
| MPKNTPIIRSLLDTDLYKFTMLQVVLHQFPAAHGEYEFRCRNHPDTPLTQLKQQLETQLDLLCELRFSQDELDYLRGLRFIKSDYVDYLELFHLQRRFISVSEEGEQLAIRIKGPMVQAMFFEIFVLAIVNELYFRPLDSKAVREEGRRRLEAKLAELERFQREEAPGQRFPLLIADFGTRRRFSRDWQAHVVERLNHALPQVFRGTSNVYLARKLGITPIGTMAHEFFQAFQALGVRLRDFQKAALESWVQEYRGDLGIALTDVVGMDAFLADFDLYFAKLFDGLRHDSGDPYIWGEKAIAHYRKLRIDPATKMLTFSDGLSVDSALQLQRHFSPHIQVSFGIGTHFTNDMGLEPLQIVLKLVSCNGQPVAKLSDSPGKTMCSDETFLAYLRQVFKVPALALEHHHHHH | soluble |
| MPKPVIAIVGRPNVGKSTIFNRIVGERVSIVEDIPGVTRDRIYSAGEWLNHEFNIIDTGGIDIGDEPFLTQIRQQAEVAIDEADVIIFMTNGRDGVTAADEEVAKILYRSNKPVVLAVNKVDNPEMRSDIYDFYALGFGEPFPISGTHGLGLGDLLDEAAQHFPKIEEDGYDEDTIRFSLIGRPNVGKSSLVNALLGQERVIVSNVAGTTRDAVDTPYSKDGKDYVIIDTAGMRKKGKVYESTEKYSVLRALRAIERSDVVLVVLDGEEGIIEQDKKIAGYAHDSGRAVVIVVNKWDAVKKDEKTMKAFEENIRAHFQFLEYAPIVFLSAKTRKRTQTLIPVIDEVNESHSIRIQTNVLNDVIMDAVAMNPTPTHNGSRLKIFYATQVAVKPPTFVVFVNDPELLHFSYERFLKNRLRESFGFVGTPIHIIARARD | soluble |
| MPKSEIRKLLQEIKKQVDNPGNSSTTEIKKMASEAGIDEQTAEEIYHLLTEFYQAVEEHGGIEKYMHSNISWLKIELELLSACYQIAILEDMKVLDISEMLSLNDLRIFPKTPSQLQNTYYKLKKELIQVEDIPKNKPGRKRKTQKNTKKEKTNIFGKVVPALEHHHHHH | soluble |
| MPKVKTNRVKYPEGWELIEPTLRELDAKMREAETDSHDGKRKCETLWPIFKVSHQRSRYVYDLYYRREEISKELYEFCLDQGYADRSLIAKWKKSGYERLCCLRCIQPRDHNYGTTCVCRVPKHLREEKVVECVHCGCQGCASGD | not soluble |
| MPLAKDLLHPLPAEEKRKHKLKRLVQHPNSYFMDVKCPGCYRITTVFSHAQGVVVCAGCATILCQPTGGRAKLTEGCSFRRKPQLEHHHHHH | not soluble |
| MPLDPQIKPILERIRALSIAASPQELRRQVEEQSRLLTAAVQEPIAETRDVHIPVSGGSIRARVYFPKKAAGLPAVLYYHGGGFVFGSIETHDHICRRLSRLSDSVVVSVDYRLAPEYKFPTAVEDAYAALKWVADRADELGVDPDRIAVAGDSAGGNLAAVVSILDRNSGEKLVKKQVLIYPVVNMTGVPTASLVEFGVAETTSLPIELMVWFGRQYLKRPEEAYDFKASPLLADLGGLPPALVVTAEYDPLRDEGELYAYKMKASGSRAVAVRFAGMVHGFVSFYPFVDAGREALDLAAASIRSGLQPS | soluble |
